Measurements from patent US20180171001A1.

Tests used:
Assay in all cases: cell-based or functional assay
[1] = biological target: Env of HIV-1 strain 3415.v1.c1 (HIV-1)
[2] = biological target: Env of HIV-1 strain H086.8 (HIV-1)
[3] = biological target: Env of HIV-1 strain 251-18 (HIV-1)
[4] = biological target: Env of HIV-1 strain REJO4541.67 (HIV-1)
[5] = biological target: Env of HIV-1 strain 3365.v2.c20 (HIV-1)
Tier 2 15 virus panel = biological target: Tier 2 15 virus panel
[6] = biological target: Env of HIV-1 strain ZM53M.PB12 (HIV-1)
[7] = biological target: Env of HIV-1 strain 231965.c1 (HIV-1)
[8] = biological target: Env of HIV-1 strain PVO.4 (HIV-1)
[9] = biological target: Env of HIV-1 strain X1254_c3 (HIV-1)
[10] = biological target: Env of HIV-1 strain 3016.v5.c45 (HIV-1)
[11] = biological target: Env of HIV-1 strain ZM109F.PB4 (HIV-1)
[12] = biological target: Env of HIV-1 strain R1166.c1 (HIV-1)
[13] = biological target: Env of HIV-1 strain 250-4 (HIV-1)
[14] = biological target: Env of HIV-1 strain YU2.DG (HIV-1)
Env of MuLV = biological target: Env of MuLV
[15] = biological target: Env of HIV-1 strain Du172.17 (HIV-1)

| Binder | neutralization IC50 [1] [µg/mL] | neutralization IC50 [2] [µg/mL] | neutralization IC50 [3] [µg/mL] | neutralization IC50 [4] [µg/mL] | neutralization IC50 [5] [µg/mL] | mean neutralization IC50 (Tier 2 15 virus panel) [µg/mL] | potency against 8ANC195 (Tier 2 15 virus panel) [fold] | neutralization IC50 [6] [µg/mL] | neutralization IC50 [7] [µg/mL] | neutralization IC50 [8] [µg/mL] | neutralization IC50 [9] [µg/mL] | neutralization IC50 [10] [µg/mL] | neutralization IC50 [11] [µg/mL] | neutralization IC50 [12] [µg/mL] | neutralization IC50 [13] [µg/mL] | neutralization IC50 [14] [µg/mL] | neutralization IC50 (Env of MuLV) [µg/mL] | neutralization IC50 [15] [µg/mL] |
| --- | --- | --- | --- | --- | --- | --- | --- | --- | --- | --- | --- | --- | --- | --- | --- | --- | --- | --- |
| γ52κ5 (antibody, V domains shown) VH: QIHLVQSGTEVKKPGSSVTVSCKAYGVNTFGLYAVNWVRQAPGQSLEYIGQIWRWKSSASHHFRGRVLISAVDLTGSSPPISSLEIKNLTSDDTAVYFCTTTSTYDRWSGLHHDGVMAFSSWGQGTLISVSA VL: DIQMTQSPSTLSASTGDTVRISCRASQSITGNWVAWYQQRPGKAPRLLIYRGAALLGGVPSRFRGSAAGTDFTLTIGNLQAEDFGTFYCQQYDTYPGTFGQGTKVEVKR | 0.12 | 0.175 | 0.048 | 0.035 | > 15 | 0.45 | 5 | 3.13 | 0.094 | 0.019 | 0.504 | 0.017 | > 15 | 0.319 | > 15 | 0.065 |  |  |
| γ15κ61 (antibody, V domains shown) VH: QIHLVQSGTEVKKPGSSVTVSCKAYGVNTFGLYAVNWVRQAPGQSLEYIGQIWRWKSSASHHFRGRVIISAVDLTGSSPPISSLEIKNLTSDDTAVYFCTTASTYDKWSGLHHDGVMAFSSWGQGTLISVSA VL: DIQMTQSPSTLSASIGDTVRISCRASQSITGNWVAWYHQRPGKAPRLLIYRGAALLGGVPSRFSGSAAGTDFTLTIGNLQAEDFGTFYCQQYDTYPGTFGQGTKVEVKR | > 15 | > 15 | 4.66 | 2.03 | > 15 |  |  | > 15 | 5.23 | 1.23 | 10.9 | 1.21 | > 15 | 6.55 | > 15 | 3.44 | > 15 | > 15 |
| γ52κ61 (antibody, V domains shown) VH: QIHLVQSGTEVKKPGSSVTVSCKAYGVNTFGLYAVNWVRQAPGQSLEYIGQIWRWKSSASHHFRGRVLISAVDLTGSSPPISSLEIKNLTSDDTAVYFCTTTSTYDRWSGLHHDGVMAFSSWGQGTLISVSA VL: DIQMTQSPSTLSASIGDTVRISCRASQSITGNWVAWYHQRPGKAPRLLIYRGAALLGGVPSRFSGSAAGTDFTLTIGNLQAEDFGTFYCQQYDTYPGTFGQGTKVEVKR | 0.681 | 0.242 | 0.273 | 0.115 | > 15 |  |  | 8.44 | 0.516 | 0.078 | 2.57 | 0.182 | > 15 | 1.64 | > 15 | 0.408 | > 15 | 7.28 |
| γ44κ61 (antibody, V domains shown) VH: QIHLVQSGTEVKKPGSSVTVSCKAYEVNTFGLYAVNWVRQAPGQSLEYIGQIWRWKSSASHHFRGRVLISAVDLTGSSPPISSLEIKNVTSDDTAVYFCTTTSTHDKWSGLHHDGVMAFSSWGQGTLISVSA VL: DIQMTQSPSTLSASIGDTVRISCRASQSITGNWVAWYHQRPGKAPRLLIYRGAALLGGVPSRFSGSAAGTDFTLTIGNLQAEDFGTFYCQQYDTYPGTFGQGTKVEVKR | > 15 | > 15 | > 15 | > 15 | > 15 |  |  | > 15 | > 15 | > 15 | > 15 | > 15 | > 15 | > 15 | > 15 | > 15 | > 15 | > 15 |
| γ46κ61 (antibody, V domains shown) VH: QIHLVQSGTEVKKPGSSVTVSCKAYGVNTFGLYAVNWVRQAPGQGLEYIGQIWRWKSSASHHFRGRVLISAVDLTGSSPPISSLEIKNVTSDDTAVYFCTTTSTYDKWSGLHHDGVVAFSSWGQGTLISVSA VL: DIQMTQSPSTLSASIGDTVRISCRASQSITGNWVAWYHQRPGKAPRLLIYRGAALLGGVPSRFSGSAAGTDFTLTIGNLQAEDFGTFYCQQYDTYPGTFGQGTKVEVKR | > 15 | 0.584 | 1.84 | 0.378 | > 15 |  |  | 27.5 | 1.58 | 0.244 | 4.46 | 0.383 | > 15 | 2.58 | > 15 | 0.918 | > 15 | 26.1 |
| γ20κ19 (antibody, V domains shown) VH: QIHLVQSGTEVKKPGSSVAVSCKAYGVNTFGLYAVNWVRQAPGQSLEYIGQIWRWKSSASHDFRGRVIISAVDLTGSSPPISSLEIKNLTSDDTAVYFCTATSTPDYWSGLHHDGVMAFSSWGQGTLISVSA VL: DIQMTQSPSTLSASVGDTVRISCRASQSITGGWLAWYHQRPGKAPRLLIYRGSRLLGGVPSRFSGSAAGTGFTLTIANLQAEDFGTFYCQQYDTYPGTFGQGTKVEVKR | > 15 | > 15 | > 15 | > 15 | > 15 |  |  | > 15 | > 15 | > 15 | 2.99 | > 15 | > 15 | > 15 | > 15 | > 15 | > 15 | > 15 |
| γ52κ18 (antibody, V domains shown) VH: QIHLVQSGTEVKKPGSSVTVSCKAYGVNTFGLYAVNWVRQAPGQSLEYIGQIWRWKSSASHHFRGRVLISAVDLTGSSPPISSLEIKNLTSDDTAVYFCTTTSTYDRWSGLHHDGVMAFSSWGQGTLISVSA VL: DIQMTQSPSTLSASVGDTVRISCRASQSITGGWLAWYHQRPGKAPRLLIYRGSRLLGGVPSRFSGSAAGADFTLTIANLQAEDFGTFYCQQYDTYPGTFGQGTKVEVKR | > 15 | 0.464 | 0.116 | 2.13 | > 15 |  |  | > 15 | 0.284 | 0.081 | 1.57 | 0.129 | > 15 | 1.35 | > 15 | 0.265 | > 15 | > 15 |
| γ59κ18 (antibody, V domains shown) VH: QIHLVQSGTEVKKPGSSVTVSCKAYGVNTFGLYAVNWVRQAPGQGLEYIGQIWRWKSSASHHFRGRVLISAVDLTGSSPPISSLEIKNVTSDDTAVYFCTTTSTYDEWSDLHHDGVMAFSSWGQGTLISVSA VL: DIQMTQSPSTLSASVGDTVRISCRASQSITGGWLAWYHQRPGKAPRLLIYRGSRLLGGVPSRFSGSAAGADFTLTIANLQAEDFGTFYCQQYDTYPGTFGQGTKVEVKR | > 15 | > 15 | 25 | 1.23 | > 15 |  |  | > 15 | > 15 | > 15 | 4.07 | > 15 | > 15 | 11.7 | > 15 | 7.71 | > 15 | > 15 |
| γ59κ61 (antibody, V domains shown) VH: QIHLVQSGTEVKKPGSSVTVSCKAYGVNTFGLYAVNWVRQAPGQGLEYIGQIWRWKSSASHHFRGRVLISAVDLTGSSPPISSLEIKNVTSDDTAVYFCTTTSTYDEWSDLHHDGVMAFSSWGQGTLISVSA VL: DIQMTQSPSTLSASIGDTVRISCRASQSITGNWVAWYHQRPGKAPRLLIYRGAALLGGVPSRFSGSAAGTDFTLTIGNLQAEDFGTFYCQQYDTYPGTFGQGTKVEVKR | > 15 | > 15 | 1.4 | 1.33 | > 15 |  |  | 13.3 | > 15 | > 15 | 4.01 | > 15 | > 15 | 7.46 | > 15 | 4.33 | > 15 | > 15 |
